Data taken from publication PMC3469519 (Molecular Biology of the Cell, 2012).
Like-named read-outs stand apart in the source and are kept apart here.

T1: 6His-Bnr1-758 (Bnr1-N) (S. cerevisiae, UniProt P40450 1-758)
T1 sequence (looked up): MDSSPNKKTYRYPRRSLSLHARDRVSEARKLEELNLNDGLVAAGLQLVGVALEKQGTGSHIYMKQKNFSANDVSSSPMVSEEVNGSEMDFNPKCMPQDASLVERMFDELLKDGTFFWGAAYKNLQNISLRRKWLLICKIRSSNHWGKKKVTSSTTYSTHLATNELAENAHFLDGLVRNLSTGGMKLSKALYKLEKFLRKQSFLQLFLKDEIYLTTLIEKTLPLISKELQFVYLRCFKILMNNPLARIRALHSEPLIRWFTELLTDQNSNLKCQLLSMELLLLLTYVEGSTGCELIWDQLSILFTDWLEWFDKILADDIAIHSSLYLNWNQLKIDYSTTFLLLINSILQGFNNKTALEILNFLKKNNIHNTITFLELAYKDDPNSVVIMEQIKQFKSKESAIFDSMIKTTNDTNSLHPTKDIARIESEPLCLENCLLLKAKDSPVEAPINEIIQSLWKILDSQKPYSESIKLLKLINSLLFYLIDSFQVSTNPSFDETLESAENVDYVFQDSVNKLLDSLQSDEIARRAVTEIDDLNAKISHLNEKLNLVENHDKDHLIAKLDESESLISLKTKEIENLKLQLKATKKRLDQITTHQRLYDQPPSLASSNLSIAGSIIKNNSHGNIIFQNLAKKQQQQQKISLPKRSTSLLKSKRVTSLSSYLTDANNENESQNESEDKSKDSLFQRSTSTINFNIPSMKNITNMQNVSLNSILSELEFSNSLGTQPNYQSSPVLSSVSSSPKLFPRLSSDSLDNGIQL


Experiments:
Assay in all cases: pull-down
full-length 6His-Bnr1 [1] = target: T2, full-length 6His-Bnr1 (S. cerevisiae, UniProt P40450 1-1375)
6His-Bnr1-758 (Bnr1-N) = target: T1, 6His-Bnr1-758 (Bnr1-N)
full-length 6His-Bnr1 [2] = target: T2, full-length 6His-Bnr1; remark: listed apart in the source

Binder | binding result (full-length 6His-Bnr1 [1]) | binding result (6His-Bnr1-758 (Bnr1-N)) | binding result (full-length 6His-Bnr1 [2])
pCAL-n-FLAG-Gin4-C (amino acids 540–1142) (domain or fragment, S. cerevisiae, UniProt Q12263 540-1142, looked up) SSNFATLIDEIFEYEKYEQIRKEKEELERKVREAKAREELERRRRKQEEKERARKLLEKEDLKRKQEELKKQIEIDISDLEQELSKHKEEKLDGNIRSISAPMENEEKNINHLEVDIDNILRRRNFSLQTRPVSRLDPGIMFSSPTEEVSPVEPKRTENERLTTEKKILETIRRSKFLGSSFNIDKELKLSKMEYPSIIAPQRLSEERVVSDSNDGYESLILPKDGNGVSQLKDSTATTAPVSDGRLRKISEIRVPQFTRKSRHFSESNKRLSVLSMYSTKESFTNLVDILKNGNLDVNNQQSQRIPTPRSADDSEFLFETVNEEAEYTGNSSNDERLYDVGDSTIKDKSALKLNFADRFNGSNEAKQTDNLHLPILPPLNGDNELRKQNSQEGDQAHPKIKSMIPESGSSSHTEKEEENEEKEEKKPEQHKQEEDQEKREKVVDDMEPPLNKSVQKIREKNAGSQAKDHSKDHLKEHKQDKNTAIGNGSFFRKFSKSSDKTMELYAKISAKQLFNGLEKLLRGWTQYGLKNIKSHPNNLTLTGKLSSDNIFSLRSTLFEVNIYPRGKMSVVQFKKVSGSFKAVKKLVNEVENVLNKEGVLQK | binds | binds | 
full-length GST-Gin4 (enzyme, S. cerevisiae, UniProt Q12263 1-1142, looked up) MAINGNSIPAIKDNTIGPWKLGETLGLGSTGKVQLARNGSTGQEAAVKVISKAVFNTGNVSGTSIVGSTTPDALPYGIEREIIIMKLLNHPNVLRLYDVWETNTDLYLVLEYAEKGELFNLLVERGPLPEHEAIRFFRQIIIGVSYCHALGIVHRDLKPENLLLDHKYNIKIADFGMAALETEGKLLETSCGSPHYAAPEIVSGIPYQGFASDVWSCGVILFALLTGRLPFDEEDGNIRTLLLKVQKGEFEMPSDDEISREAQDLIRKILTVDPERRIKTRDILKHPLLQKYPSIRDSKSIRGLPREDTYLTPLSESNSSIDATILQNLVILWHGRDPEGIKEKLREPGANAEKTLYALLYRFKCDTQKELIKQQQVKKRQSISSVSVSPSKKVSTTPQRRRNRESLISVTSSRKKPISFNKFTASSASSSNLTTPGSSKRLSKNFSSKKKLSTIVNQSSPTPASRNKRASVINVEKNQKRASIFSTTKKNKRSSRSIKRMSLIPSMKRESVTTKLMSTYAKLAEDDDWEYIEKETKRTSSNFATLIDEIFEYEKYEQIRKEKEELERKVREAKAREELERRRRKQEEKERARKLLEKEDLKRKQEELKKQIEIDISDLEQELSKHKEEKLDGNIRSISAPMENEEKNINHLEVDIDNILRRRNFSLQTRPVSRLDPGIMFSSPTEEVSPVEPKRTENERLTTEKKILETIRRSKFLGSSFNIDKELKLSKMEYPSIIAPQRLSEERVVSDSNDGYESLILPKDGNGVSQLKDSTATTAPVSDGRLRKISEIRVPQFTRKSRHFSESNKRLSVLSMYSTKESFTNLVDILKNGNLDVNNQQSQRIPTPRSADDSEFLFETVNEEAEYTGNSSNDERLYDVGDSTIKDKSALKLNFADRFNGSNEAKQTDNLHLPILPPLNGDNELRKQNSQEGDQAHPKIKSMIPESGSSSHTEKEEENEEKEEKKPEQHKQEEDQEKREKVVDDMEPPLNKSVQKIREKNAGSQAKDHSKDHLKEHKQDKNTAIGNGSFFRKFSKSSDKTMELYAKISAKQLFNGLEKLLRGWTQYGLKNIKSHPNNLTLTGKLSSDNIFSLRSTLFEVNIYPRGKMSVVQFKKVSGSFKAVKKLVNEVENVLNKEGVLQK |  |  | binds
